Assay results from IntAct's records for PubMed 29039417.

B1: BBSome complex member BBS2 (Homo sapiens), Q9BXC9 (parent)
chain: MLLPVFTLKLRHKISPRMVAIGRYDGTHPCLAAATQTGKVFIHNPHTRNQHVSASRVFQSPLESDVSLLSINQAVSCLTAGVLNPELGYDALLVGTQTNLLAYDVYNNSDLFYREVADGANAIVLGTLGDISSPLAIIGGNCALQGFNHEGSDLFWTVTGDNVNSLALCDFDGDGKKELLVGSEDFDIRVFKEDEIVAEMTETEIVTSLCPMYGSRFGYALSNGTVGVYDKTSRYWRIKSKNHAMSIHAFDLNSDGVNELITGWSNGKVDARSDRTGEVIFKDNFSSAIAGVVEGDYRMDGHIQLICCSVDGEIRGYLPGTAEMRGNLMDTSAEQDLIRELSQKKQNLLLELRNYEENAKAELASPLNEADGHRGIIPANTRLHTTLSVSLGNETQTAHTELRISTSNDTIIRAVLIFAEGIFTGESHVVHPSIHNLSSSICIPIVPPKDVPVDLHLKAFVGYRSSTQFHVFESTRQLPRFSMYALTSLDPASEPISYVNFTIAERAQRVVVWLGQNFLLPEDTHIQNAPFQVCFTSLRNGGHLHIKIKLSGEITINTDDIDLAGDIIQSMASFFAIEDLQVEADFPVYFEELRKVLVKVDEYHSVHQKLSADMADHSNLIRSLLVGAEDARLMRDMKTMKSRYMELYDLNRDLLNGYKIRCNNHTELLGNLKAVNQAIQRAGRLRVGKPKNQVITACRDAIRSNNINTLFKIMRVGTASS
partner: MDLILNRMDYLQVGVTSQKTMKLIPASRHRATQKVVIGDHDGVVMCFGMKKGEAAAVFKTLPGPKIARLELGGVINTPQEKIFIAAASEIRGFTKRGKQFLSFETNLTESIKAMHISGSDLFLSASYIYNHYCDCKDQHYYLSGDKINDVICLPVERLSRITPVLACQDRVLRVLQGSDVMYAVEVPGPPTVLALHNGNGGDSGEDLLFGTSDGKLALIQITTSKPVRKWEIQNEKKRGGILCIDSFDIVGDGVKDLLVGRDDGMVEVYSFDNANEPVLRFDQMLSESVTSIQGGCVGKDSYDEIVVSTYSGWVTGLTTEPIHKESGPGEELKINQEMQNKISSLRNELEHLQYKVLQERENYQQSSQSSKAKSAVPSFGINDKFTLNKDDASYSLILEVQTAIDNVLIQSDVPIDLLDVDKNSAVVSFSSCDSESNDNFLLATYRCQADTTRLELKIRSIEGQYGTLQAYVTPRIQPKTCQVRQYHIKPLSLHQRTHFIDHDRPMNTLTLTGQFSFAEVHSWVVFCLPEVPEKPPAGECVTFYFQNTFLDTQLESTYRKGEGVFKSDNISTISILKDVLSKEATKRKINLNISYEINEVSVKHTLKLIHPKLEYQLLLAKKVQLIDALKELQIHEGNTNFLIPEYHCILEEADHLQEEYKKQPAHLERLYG
B2: BBSome complex member BBS5 (Homo sapiens), Q8N3I7 (parent)
chain: MSVLDALWEDRDVRFDLSAQQMKTRPGEVLIDCLDSIEDTKGNNGDRGRLLVTNLRILWHSLALSRVNVSVGYNCILNITTRTANSKLRGQTEALYILTKCNSTRFEFIFTNLVPGSPRLFTSVMAVHRAYETSKMYRDFKLRSALIQNKQLRLLPQEHVYDKINGVWNLSSDQGNLGTFFITNVRIVWHANMNDSFNVSIPYLQIRSIKIRDSKFGLALVIESSQQSGGYVLGFKIDPVEKLQESVKEINSLHKVYSASPIFGVDYEMEEKPQPLEALTVEQIQDDVEIDSDGHTDAFVAYFADGNKQQDREPVFSEELGLAIEKLKDGFTLQGLWEVMS
partner: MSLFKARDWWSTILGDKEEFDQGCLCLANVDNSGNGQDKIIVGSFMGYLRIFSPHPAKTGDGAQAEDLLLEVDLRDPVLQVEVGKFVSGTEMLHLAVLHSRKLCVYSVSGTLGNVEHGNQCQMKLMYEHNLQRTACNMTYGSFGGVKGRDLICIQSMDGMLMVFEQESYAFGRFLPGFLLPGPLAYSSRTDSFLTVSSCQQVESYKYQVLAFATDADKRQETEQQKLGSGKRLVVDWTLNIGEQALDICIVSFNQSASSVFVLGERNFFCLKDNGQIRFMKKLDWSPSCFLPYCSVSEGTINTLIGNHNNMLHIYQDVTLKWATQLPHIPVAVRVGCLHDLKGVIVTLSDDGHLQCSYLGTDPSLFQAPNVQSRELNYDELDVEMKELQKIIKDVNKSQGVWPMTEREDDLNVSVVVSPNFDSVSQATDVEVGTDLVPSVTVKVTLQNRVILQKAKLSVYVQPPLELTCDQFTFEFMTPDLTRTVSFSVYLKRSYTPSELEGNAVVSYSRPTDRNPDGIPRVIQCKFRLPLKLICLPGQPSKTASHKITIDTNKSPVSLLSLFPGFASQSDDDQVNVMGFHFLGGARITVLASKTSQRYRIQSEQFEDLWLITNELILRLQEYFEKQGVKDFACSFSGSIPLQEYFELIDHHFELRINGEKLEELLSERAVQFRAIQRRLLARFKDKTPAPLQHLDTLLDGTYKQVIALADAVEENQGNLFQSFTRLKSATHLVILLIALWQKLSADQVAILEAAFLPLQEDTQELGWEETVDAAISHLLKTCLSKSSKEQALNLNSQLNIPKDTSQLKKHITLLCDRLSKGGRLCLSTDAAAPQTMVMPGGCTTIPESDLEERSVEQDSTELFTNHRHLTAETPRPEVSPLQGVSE

Variants of: B1
Conditions: with BBS7, Q8IWZ6-2

Row | Variant | effect of a mutation on the interaction
1 | T709E | with no effect
2 | T709K | with no effect
3 | L710A | with no effect
4 | L710E | with no effect
5 | L710K | with no effect
6 | F711A | with no effect
7 | F711E | with no effect
8 | F711K | with no effect
9 | K712A | with no effect
10 | K712E | with no effect
11 | I713A | with no effect
12 | I713E | with no effect
13 | I713K | with no effect
14 | M714A | with no effect
15 | M714E | with no effect
16 | M714K | with no effect
17 | R715A | with no effect
18 | R715E | with no effect

Row | Variant | effect of a mutation on the interaction
19 | R715K | with no effect
20 | V716A | with no effect
21 | V716E | with no effect
22 | V716K | with no effect
23 | G717A | with no effect
24 | G717E | with no effect
25 | G717K | with no effect
26 | T718A | with no effect
27 | T718E | with no effect
28 | T718K | with no effect
29 | A719E | with no effect
30 | A719K | with no effect
31 | S720A | with no effect
32 | S720E | with no effect
33 | S720K | with no effect
34 | S721A | with no effect
35 | S721E | with no effect
36 | S721K | with no effect

Variants of: B1
Conditions: with BBS7, Q8IWZ6-2
Remark: another data set of the same source

Row | Variant | effect of a mutation on the interaction
37 | S365R | disrupting interaction strength

Variants of: B2
Conditions: with pthb1_human BBS9, Q3SYG4

Row | Variant | effect of a mutation on the interaction
38 | ASVLDALWEDRDVRFDLSAQQMKTRPGEVLIDCLDSIEDTKGNNGDRGRLLVTNLRILWHSLALSRVNVSVGYNCILNITTRTANSKLRGQTEALYILTKCNSTRFEFIFTNLVPGSPRLFTSVMAVHRAYETSKMYRDFKLRSALIQNKQLRLLPQEHVYDKINGVWNLSSDQGNLGTFFITNVRIVWHANMNDSFNVSIPYLQIRSIKIRDSKFGLALVIESSQQSGGYVLGFKIDPVEKLQESVKEINSLHKVYSASPIFGVDYEMEEKPQPLEALTVEQIQDDVEIDSDGHTDAFVAYFADGNKQQDREPVFSEELGLAIEKLKDGFTLQGLWEVMS [M1A] | with no effect
39 | ESVLDALWEDRDVRFDLSAQQMKTRPGEVLIDCLDSIEDTKGNNGDRGRLLVTNLRILWHSLALSRVNVSVGYNCILNITTRTANSKLRGQTEALYILTKCNSTRFEFIFTNLVPGSPRLFTSVMAVHRAYETSKMYRDFKLRSALIQNKQLRLLPQEHVYDKINGVWNLSSDQGNLGTFFITNVRIVWHANMNDSFNVSIPYLQIRSIKIRDSKFGLALVIESSQQSGGYVLGFKIDPVEKLQESVKEINSLHKVYSASPIFGVDYEMEEKPQPLEALTVEQIQDDVEIDSDGHTDAFVAYFADGNKQQDREPVFSEELGLAIEKLKDGFTLQGLWEVMS [M1E] | with no effect
40 | KSVLDALWEDRDVRFDLSAQQMKTRPGEVLIDCLDSIEDTKGNNGDRGRLLVTNLRILWHSLALSRVNVSVGYNCILNITTRTANSKLRGQTEALYILTKCNSTRFEFIFTNLVPGSPRLFTSVMAVHRAYETSKMYRDFKLRSALIQNKQLRLLPQEHVYDKINGVWNLSSDQGNLGTFFITNVRIVWHANMNDSFNVSIPYLQIRSIKIRDSKFGLALVIESSQQSGGYVLGFKIDPVEKLQESVKEINSLHKVYSASPIFGVDYEMEEKPQPLEALTVEQIQDDVEIDSDGHTDAFVAYFADGNKQQDREPVFSEELGLAIEKLKDGFTLQGLWEVMS [M1K] | with no effect
41 | MAVLDALWEDRDVRFDLSAQQMKTRPGEVLIDCLDSIEDTKGNNGDRGRLLVTNLRILWHSLALSRVNVSVGYNCILNITTRTANSKLRGQTEALYILTKCNSTRFEFIFTNLVPGSPRLFTSVMAVHRAYETSKMYRDFKLRSALIQNKQLRLLPQEHVYDKINGVWNLSSDQGNLGTFFITNVRIVWHANMNDSFNVSIPYLQIRSIKIRDSKFGLALVIESSQQSGGYVLGFKIDPVEKLQESVKEINSLHKVYSASPIFGVDYEMEEKPQPLEALTVEQIQDDVEIDSDGHTDAFVAYFADGNKQQDREPVFSEELGLAIEKLKDGFTLQGLWEVMS [S2A] | with no effect
42 | MEVLDALWEDRDVRFDLSAQQMKTRPGEVLIDCLDSIEDTKGNNGDRGRLLVTNLRILWHSLALSRVNVSVGYNCILNITTRTANSKLRGQTEALYILTKCNSTRFEFIFTNLVPGSPRLFTSVMAVHRAYETSKMYRDFKLRSALIQNKQLRLLPQEHVYDKINGVWNLSSDQGNLGTFFITNVRIVWHANMNDSFNVSIPYLQIRSIKIRDSKFGLALVIESSQQSGGYVLGFKIDPVEKLQESVKEINSLHKVYSASPIFGVDYEMEEKPQPLEALTVEQIQDDVEIDSDGHTDAFVAYFADGNKQQDREPVFSEELGLAIEKLKDGFTLQGLWEVMS [S2E] | with no effect
43 | MKVLDALWEDRDVRFDLSAQQMKTRPGEVLIDCLDSIEDTKGNNGDRGRLLVTNLRILWHSLALSRVNVSVGYNCILNITTRTANSKLRGQTEALYILTKCNSTRFEFIFTNLVPGSPRLFTSVMAVHRAYETSKMYRDFKLRSALIQNKQLRLLPQEHVYDKINGVWNLSSDQGNLGTFFITNVRIVWHANMNDSFNVSIPYLQIRSIKIRDSKFGLALVIESSQQSGGYVLGFKIDPVEKLQESVKEINSLHKVYSASPIFGVDYEMEEKPQPLEALTVEQIQDDVEIDSDGHTDAFVAYFADGNKQQDREPVFSEELGLAIEKLKDGFTLQGLWEVMS [S2K] | with no effect
44 | MSALDALWEDRDVRFDLSAQQMKTRPGEVLIDCLDSIEDTKGNNGDRGRLLVTNLRILWHSLALSRVNVSVGYNCILNITTRTANSKLRGQTEALYILTKCNSTRFEFIFTNLVPGSPRLFTSVMAVHRAYETSKMYRDFKLRSALIQNKQLRLLPQEHVYDKINGVWNLSSDQGNLGTFFITNVRIVWHANMNDSFNVSIPYLQIRSIKIRDSKFGLALVIESSQQSGGYVLGFKIDPVEKLQESVKEINSLHKVYSASPIFGVDYEMEEKPQPLEALTVEQIQDDVEIDSDGHTDAFVAYFADGNKQQDREPVFSEELGLAIEKLKDGFTLQGLWEVMS [V3A] | with no effect
45 | MSELDALWEDRDVRFDLSAQQMKTRPGEVLIDCLDSIEDTKGNNGDRGRLLVTNLRILWHSLALSRVNVSVGYNCILNITTRTANSKLRGQTEALYILTKCNSTRFEFIFTNLVPGSPRLFTSVMAVHRAYETSKMYRDFKLRSALIQNKQLRLLPQEHVYDKINGVWNLSSDQGNLGTFFITNVRIVWHANMNDSFNVSIPYLQIRSIKIRDSKFGLALVIESSQQSGGYVLGFKIDPVEKLQESVKEINSLHKVYSASPIFGVDYEMEEKPQPLEALTVEQIQDDVEIDSDGHTDAFVAYFADGNKQQDREPVFSEELGLAIEKLKDGFTLQGLWEVMS [V3E] | with no effect
46 | MSKLDALWEDRDVRFDLSAQQMKTRPGEVLIDCLDSIEDTKGNNGDRGRLLVTNLRILWHSLALSRVNVSVGYNCILNITTRTANSKLRGQTEALYILTKCNSTRFEFIFTNLVPGSPRLFTSVMAVHRAYETSKMYRDFKLRSALIQNKQLRLLPQEHVYDKINGVWNLSSDQGNLGTFFITNVRIVWHANMNDSFNVSIPYLQIRSIKIRDSKFGLALVIESSQQSGGYVLGFKIDPVEKLQESVKEINSLHKVYSASPIFGVDYEMEEKPQPLEALTVEQIQDDVEIDSDGHTDAFVAYFADGNKQQDREPVFSEELGLAIEKLKDGFTLQGLWEVMS [V3K] | with no effect
47 | MSVADALWEDRDVRFDLSAQQMKTRPGEVLIDCLDSIEDTKGNNGDRGRLLVTNLRILWHSLALSRVNVSVGYNCILNITTRTANSKLRGQTEALYILTKCNSTRFEFIFTNLVPGSPRLFTSVMAVHRAYETSKMYRDFKLRSALIQNKQLRLLPQEHVYDKINGVWNLSSDQGNLGTFFITNVRIVWHANMNDSFNVSIPYLQIRSIKIRDSKFGLALVIESSQQSGGYVLGFKIDPVEKLQESVKEINSLHKVYSASPIFGVDYEMEEKPQPLEALTVEQIQDDVEIDSDGHTDAFVAYFADGNKQQDREPVFSEELGLAIEKLKDGFTLQGLWEVMS [L4A] | with no effect
